Measurements reported in paper PMC5967319.

Target: eukaryotic initiation factor 4E (eIF4E) (human (endogenous in HEK293T)) (UniProt P06730)
Test: pull-down; eIF4E captured from HEK293T lysate (1 mg protein) on m7GTP-agarose (cap analog), 4 °C, 90 min, 50 mM HEPES pH 7.4, 50 mM NaCl; eluted with 0.5 mM m7GTP; blots for eIF4E and 4EBP1; cells in complete medium or medium without His, Arg, Leu or Met for 12 h, or transfected with empty vector, wild-type or T37A/T46A 4EBP1 for 24 h

Chain of UniProt P06730 (P06730 whole entry): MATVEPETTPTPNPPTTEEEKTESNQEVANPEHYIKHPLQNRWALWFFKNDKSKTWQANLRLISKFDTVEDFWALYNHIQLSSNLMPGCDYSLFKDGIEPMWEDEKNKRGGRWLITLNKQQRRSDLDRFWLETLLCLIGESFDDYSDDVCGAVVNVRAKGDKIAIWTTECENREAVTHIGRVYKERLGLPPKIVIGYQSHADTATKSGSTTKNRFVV

fold of 4EBP1 bound to eIF4E against cells with empty vector: 4 fold
Substance: mutant constitutively active 4EBP1(T37A/T46A) (from UniProt Q60876 1-117) (natural protein)
